The test concerns the target activated RecA (RecA*), E. coli RecA polymerised on ssDNA with ATPγS (E. coli) (UniProt P0A7G6). Kind of test: fluorescence polarisation. For orientation: Fluorescence polarisation rises when a labelled molecule tumbles more slowly, as on binding a larger partner.

activated RecA (RecA*), E. coli RecA polymerised on ssDNA with ATPγS (E. coli), sequence (P0A7G6 whole entry): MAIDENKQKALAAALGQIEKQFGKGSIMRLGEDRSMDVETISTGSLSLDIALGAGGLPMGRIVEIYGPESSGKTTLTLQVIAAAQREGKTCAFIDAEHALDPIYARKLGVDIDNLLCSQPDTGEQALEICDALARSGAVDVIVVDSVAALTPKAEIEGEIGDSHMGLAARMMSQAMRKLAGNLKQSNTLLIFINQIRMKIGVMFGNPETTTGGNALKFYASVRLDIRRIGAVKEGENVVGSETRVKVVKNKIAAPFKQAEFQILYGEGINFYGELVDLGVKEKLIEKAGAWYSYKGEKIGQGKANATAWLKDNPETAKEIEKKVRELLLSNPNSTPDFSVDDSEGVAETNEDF

Consider “LexA G80P, full-length cleavage loop variant (from UniProt P0A7C2 1-202) (natural protein)”, for which the fold decrease in apparent affinity for RecA* against LexA-S119A was > 10 fold.
Regarding “LexA V82M, full-length cleavage loop variant (from UniProt P0A7C2 1-202) (natural protein)”, the fold decrease in apparent affinity for RecA* against LexA-S119A was > 10 fold.

(Values after publication PMC7230020.)
